Test results from paper PMC4006878 (Organic letters, 2013).

Target: GLP-1R (Homo sapiens, UniProt P43220)
Experiment: cAMP response element luciferase reporter gene assay in GLP-1R+ CHO-K1 cells
Type: cell-based
Conditions: 1 μM of the ligand, Figure 3A

Chain of GLP-1R (P43220 24-463): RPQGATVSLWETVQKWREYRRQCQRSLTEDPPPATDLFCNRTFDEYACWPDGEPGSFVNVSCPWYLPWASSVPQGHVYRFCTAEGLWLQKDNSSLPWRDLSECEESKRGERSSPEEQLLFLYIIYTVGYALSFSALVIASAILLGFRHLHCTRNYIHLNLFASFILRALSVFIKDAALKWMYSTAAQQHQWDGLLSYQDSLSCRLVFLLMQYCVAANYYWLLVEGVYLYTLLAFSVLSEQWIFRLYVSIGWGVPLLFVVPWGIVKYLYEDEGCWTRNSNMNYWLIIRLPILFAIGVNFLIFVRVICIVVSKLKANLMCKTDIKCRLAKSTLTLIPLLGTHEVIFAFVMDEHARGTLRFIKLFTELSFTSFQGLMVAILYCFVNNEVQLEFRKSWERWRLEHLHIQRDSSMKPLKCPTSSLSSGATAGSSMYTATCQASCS

exendin-4_9-39: exendin-4 fragment 9-39 used at 1 μM to inhibit GLP-1R activation
inhibition of GLP-1 agonism at GLP-1R: inhibited
